{
  "source": "patent US20050262592",
  "system": "duckweed-produced human microplasminogen",
  "sequence (chain, as listed by the source)": "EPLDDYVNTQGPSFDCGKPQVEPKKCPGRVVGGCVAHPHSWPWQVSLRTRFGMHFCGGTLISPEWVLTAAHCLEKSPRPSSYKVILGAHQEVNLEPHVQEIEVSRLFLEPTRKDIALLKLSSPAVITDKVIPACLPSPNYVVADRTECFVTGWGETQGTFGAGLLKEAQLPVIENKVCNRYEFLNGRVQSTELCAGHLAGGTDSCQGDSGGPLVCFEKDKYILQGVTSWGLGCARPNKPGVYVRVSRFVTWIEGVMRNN",
  "data": [
    {"substance": "urokinase", "values": [
      {"measurement": "Western blot: production of the B chain of plasmin", "value": "Western blot analysis confirmed the production of the B chain of plasmin following activation of duckweed-produced microplasminogen with either urokinase or tPA"}
    ]}
  ]
}
